B1: PRIM1 (parent)
chain: CCSSADICPKCWTLMTMAIRIIDR
B2: TRIM15 (parent)
chain: LLARLRELEQQIWKERDEYITKVS

Variants of: B1
Test: protein stability index of a GFP-peptide fusion (GPS, HEK-293T) (PSI 1-6); higher = more stable
Conditions: c terminus: a fixed tail appended
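Further: lentivirally expressed fusions sorted by FACS into six bins by GFP to DsRed ratio, PSI derived from sequencing read proportions per bin multiplied by bin number.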

Protein stability index of substitutions, site by site:
T13: L 1.49; Y 2.19; P 1.3; C 2.04; G 1.91; E 1.88; M 1.59; N 1.38; Q 2.18; D 1.61; A 2.63; W 2.31; I 2.13; K 2.46; F 1.53; S 1.96
C8: I 3.3; R 3.94; K 2.95; S 1.54; L 3.02; V 2.88; N 2.83; A 3.21; Q 1.8
P9: W 1.35; Q 1.67; F 1.59; L 1.77; K 2.69; C 2.43; M 1.86; E 1.33; Y 1.55; A 1.53; V 2.27; R 1.73; T 1.47; I 1.78; S 1.96; G 1.9; H 2.29; D 1.64; N 1.29
I7: S 1.72; V 1.88; Q 2.05; W 2.16; C 1.94; E 2.21; M 1.52; H 1.91; K 2.65; G 1.98; Y 1.57; R 1.85; N 1.69; D 2.35; L 2.56; F 2.63; A 1.87; T 1.77; P 2.07
M17: C 1.15; N 2.48; K 2.56; H 2.38; R 1.7; D 2.33; W 2.19; T 2.09; F 1.94; L 1.74; V 1.6; I 1.94; G 1.96; Q 2.54; E 2.5; S 2.95; P 2.29; A 2.03; Y 2.15
A18: F 1.64; C 2.45; D 2.39; K 2.17; L 2.3; E 1.45; H 2.1; G 2.06; I 1.79
K10: H 2; N 1.81; E 1.56; Q 1.98; M 1.92; L 2.14; R 2.3; C 2.62; T 2.71; D 3.36; F 1.95; Y 1.85
A5: N 1.54; V 1.64; C 2.01; D 1.41; Q 1.51; T 2.98; Y 3.67; F 2.5; S 2.63; W 2.15; R 1.67; L 1.15; H 1.71; K 1.93; P 1.62; G 1.7; M 1.79; I 1.33
C1: R 2.01; W 2.25; T 2.12; P 1.78; E 1.6; I 1.53; G 1.88; N 1.49; M 2.5; V 2.87; H 1.87; D 2.01; Q 1.85; L 2; K 1.61; Y 1.37; F 1.5; S 1.79
C2: N 2.03; R 1.91; Q 1.9; Y 1.96; W 1.78; D 2.41; G 1.6; P 2.21; L 2.55; V 2.06; I 1.74; F 1.83; K 1.45; A 2.49; S 1.96; H 1.69; M 2.48; E 1.83
L14: N 1.82; C 1.8; G 1.27; P 2.27; D 1.95; V 1.8; R 2.18; A 2.21; K 2; Q 1.9; E 2.06; Y 1.71; S 2.39; H 1.6; W 2.62; F 2.06; M 1.55; T 2.89; I 1.75
W12: Q 2.75; C 1.83; D 1.71; R 2.56; S 2.23; L 1.56; K 2.64; G 2.2; H 2.19; A 2.29; M 2.02; F 1.69; I 1.83; E 2.05; P 1.48; N 1.83; V 1.23; T 1.88; Y 2.48
M15: S 1.95; G 1.69; R 2.35; I 2.87; N 2.29; E 2.01; V 2.96; L 1.59; Y 1.63; F 1.47; P 2.13; W 1.98; K 2.45; Q 1.95; C 1.77; A 2.96; T 2.34; D 2.03; H 2.25
C11: I 2.4; T 1.76; H 2.43; D 3.13; K 1.82; E 3.11; F 2.58; W 2.84; A 4.39
S3: P 1.28; T 1.53; M 2.7; W 1.42; Q 2.08; Y 2.43; R 1.9; C 1.65; H 2.16; F 1.51; K 1.45; L 2.32; N 1.95; D 1.56; I 1.87; E 2.04; A 1.82
S4: N 1.72; K 2.2; F 2.39; Q 2.66; W 1.51; T 1.63; R 2.42; A 1.87; G 1.85; C 2.72; D 1.48; P 1.67; H 1.72; M 2.97; L 2.24; E 2.11; I 1.79; V 2.19; Y 1.91
T16: M 1.52; V 1.87; P 2.09; C 1.61; K 1.61; L 2; H 2.04; A 2.23; R 1.95; Y 2.08; S 1.49; F 2.12; Q 2.54; N 2.37; D 2.07; E 1.48; G 2.56
D6: V 1.47; G 1.47; F 2.11; N 1.86; Y 1.58; A 1.7; M 2.15; T 2.29; S 1.86; Q 2.44; E 2.22; H 2.49; W 2.91; R 1.51; P 2.13; K 2.14; C 1.62; I 1.91

Variants of: B2
Test: as above
Conditions: c terminus: a fixed tail appended

Protein stability index of substitutions, site by site:
K22: Y 1.9; P 1.23; T 1.43; V 1.97; N 1.38; I 1.78; W 2.06; R 2.46
V23: Q 1.71; L 2; W 1.7; P 1.26; T 1.63; I 1.86; A 1.5; M 2.03; D 3.9; R 1.57; H 1.86; C 2.1; N 1.64; S 2.25; Y 2.4; F 1.69
S24: I 2.42; D 3.02; Y 2.94; F 1.51; P 1.82; L 1.95; H 2.29; E 1.38; T 1.31; A 1.63; V 3; M 2.12; C 2.05; R 1.93; N 1.52; K 1.44
